molecular target: kinesin-1 (endogenous, Neuro2a), Q61768;O88447; assay: co-immunoprecipitation with anti-GFP antibody, western blot for KHC, quantified; conditions: chain shown with the change, lysates of Neuro2a cells expressing GFP-JIP1 constructs, kinesin-1 signal normalized to precipitated GFP-JIP1, n > 3
Sequence (chain, as listed by the source, chain 1 of 2): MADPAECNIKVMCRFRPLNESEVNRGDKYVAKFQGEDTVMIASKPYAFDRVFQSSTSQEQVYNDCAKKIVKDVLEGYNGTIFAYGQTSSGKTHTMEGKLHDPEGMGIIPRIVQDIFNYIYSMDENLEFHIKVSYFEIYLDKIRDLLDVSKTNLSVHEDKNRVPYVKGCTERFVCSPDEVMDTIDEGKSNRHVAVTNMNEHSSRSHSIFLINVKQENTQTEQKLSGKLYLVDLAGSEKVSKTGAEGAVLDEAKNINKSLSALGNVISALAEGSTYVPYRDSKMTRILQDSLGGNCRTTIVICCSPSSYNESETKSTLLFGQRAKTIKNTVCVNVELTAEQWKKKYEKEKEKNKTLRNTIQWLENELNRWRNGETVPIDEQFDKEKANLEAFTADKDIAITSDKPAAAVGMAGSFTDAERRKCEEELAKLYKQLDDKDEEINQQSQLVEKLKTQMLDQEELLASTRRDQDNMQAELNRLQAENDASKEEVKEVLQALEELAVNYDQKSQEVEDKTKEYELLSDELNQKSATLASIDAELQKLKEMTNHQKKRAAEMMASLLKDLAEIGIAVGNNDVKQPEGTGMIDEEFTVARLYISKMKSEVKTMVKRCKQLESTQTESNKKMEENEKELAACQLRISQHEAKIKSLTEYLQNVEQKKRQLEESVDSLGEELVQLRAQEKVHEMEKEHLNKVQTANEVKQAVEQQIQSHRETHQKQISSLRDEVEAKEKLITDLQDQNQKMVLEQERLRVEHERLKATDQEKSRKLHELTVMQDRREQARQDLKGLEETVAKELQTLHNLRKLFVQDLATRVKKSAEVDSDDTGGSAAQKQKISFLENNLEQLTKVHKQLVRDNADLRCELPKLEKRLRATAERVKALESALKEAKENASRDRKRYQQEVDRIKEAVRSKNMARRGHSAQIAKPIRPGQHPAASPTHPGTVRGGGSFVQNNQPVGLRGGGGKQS
Sequence (chain, as listed by the source, chain 2 of 2): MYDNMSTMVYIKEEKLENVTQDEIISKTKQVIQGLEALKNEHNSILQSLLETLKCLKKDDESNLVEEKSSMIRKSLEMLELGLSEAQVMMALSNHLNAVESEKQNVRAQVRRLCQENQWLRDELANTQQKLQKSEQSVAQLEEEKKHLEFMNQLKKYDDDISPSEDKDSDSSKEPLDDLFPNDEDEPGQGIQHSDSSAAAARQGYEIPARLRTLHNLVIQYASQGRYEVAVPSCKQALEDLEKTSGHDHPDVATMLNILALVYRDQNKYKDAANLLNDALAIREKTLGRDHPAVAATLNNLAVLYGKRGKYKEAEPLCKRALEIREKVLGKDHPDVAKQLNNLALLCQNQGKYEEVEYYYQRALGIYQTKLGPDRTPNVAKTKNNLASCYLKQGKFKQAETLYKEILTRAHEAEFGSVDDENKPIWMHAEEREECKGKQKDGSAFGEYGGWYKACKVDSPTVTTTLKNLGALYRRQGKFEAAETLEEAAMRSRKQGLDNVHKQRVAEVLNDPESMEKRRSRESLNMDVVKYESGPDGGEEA

percent of parent	Binder
13.4	GFP-JIP1-WT, Q9WVI9-1 V581A (protein) MAERESGLGGGAASPPAASPFLGLHIASPPNFRLTHDISLEEFEDEDLSEITDECGISLQCKDTLSLRPPRAGLLSAGSSGSAGSRLQAEMLQMDLIDAAGDTPGAEDDEEEEDDELAAQRPGVGPPKAESNQDPAPRSQGQGPGTGSGDTYRPKRPTTLNLFPQVPRSQDTLNNNSLGKKHSWQDRVSRSSSPLKTGEQTPPHEHICLSDELPPQGSPVPTQDRGTSTDSPCRRSAATQMAPPSGPPATAPGGRGHSHRDRIHYQADVRLEATEEIYLTPVQRPPDPAEPTSTFMPPTESRMSVSSDPDPAAYSVTAGRPHPSISEEDEGFDCLSSPERAEPPGGGWRGSLGEPPPPPRASLSSDTSALSYDSVKYTLVVDEHAQLELVSLRPCFGDYSDESDSATVYDNCASASSPYESAIGEEYEEAPQPRPPTCLSEDSTPDEPDVHFSKKFLNVFMSGRSRSSSAESFGLFSCVINGEEHEQTHRAIFRFVPRHEDELELEVDDPLLVELQAEDYWYEAYNMRTGARGVFPAYYAIEVTKEPEHMAALAKNSDWIDQFRVKFLGSVQVPYHKGNDALCAAMQKIATTRRLTVHFNPPSSCVLEISVRGVKIGVKADDALEAKGNKCSHFFQLKNISFCGYHPKNNKYFGFITKHPADHRFACHVFVSEDSTKALAESVGRAFQQFYKQFVEYTCPTEDIYLE
25.4	GFP-JIP1-WT, Q9WVI9-1 F687V (protein) MAERESGLGGGAASPPAASPFLGLHIASPPNFRLTHDISLEEFEDEDLSEITDECGISLQCKDTLSLRPPRAGLLSAGSSGSAGSRLQAEMLQMDLIDAAGDTPGAEDDEEEEDDELAAQRPGVGPPKAESNQDPAPRSQGQGPGTGSGDTYRPKRPTTLNLFPQVPRSQDTLNNNSLGKKHSWQDRVSRSSSPLKTGEQTPPHEHICLSDELPPQGSPVPTQDRGTSTDSPCRRSAATQMAPPSGPPATAPGGRGHSHRDRIHYQADVRLEATEEIYLTPVQRPPDPAEPTSTFMPPTESRMSVSSDPDPAAYSVTAGRPHPSISEEDEGFDCLSSPERAEPPGGGWRGSLGEPPPPPRASLSSDTSALSYDSVKYTLVVDEHAQLELVSLRPCFGDYSDESDSATVYDNCASASSPYESAIGEEYEEAPQPRPPTCLSEDSTPDEPDVHFSKKFLNVFMSGRSRSSSAESFGLFSCVINGEEHEQTHRAIFRFVPRHEDELELEVDDPLLVELQAEDYWYEAYNMRTGARGVFPAYYAIEVTKEPEHMAALAKNSDWIDQFRVKFLGSVQVPYHKGNDVLCAAMQKIATTRRLTVHFNPPSSCVLEISVRGVKIGVKADDALEAKGNKCSHFFQLKNISFCGYHPKNNKYFGFITKHPADHRFACHVFVSEDSTKALAESVGRAVQQFYKQFVEYTCPTEDIYLE
3.7	GFP-JIP1-WT, Q9WVI9-1 F642V (protein) MAERESGLGGGAASPPAASPFLGLHIASPPNFRLTHDISLEEFEDEDLSEITDECGISLQCKDTLSLRPPRAGLLSAGSSGSAGSRLQAEMLQMDLIDAAGDTPGAEDDEEEEDDELAAQRPGVGPPKAESNQDPAPRSQGQGPGTGSGDTYRPKRPTTLNLFPQVPRSQDTLNNNSLGKKHSWQDRVSRSSSPLKTGEQTPPHEHICLSDELPPQGSPVPTQDRGTSTDSPCRRSAATQMAPPSGPPATAPGGRGHSHRDRIHYQADVRLEATEEIYLTPVQRPPDPAEPTSTFMPPTESRMSVSSDPDPAAYSVTAGRPHPSISEEDEGFDCLSSPERAEPPGGGWRGSLGEPPPPPRASLSSDTSALSYDSVKYTLVVDEHAQLELVSLRPCFGDYSDESDSATVYDNCASASSPYESAIGEEYEEAPQPRPPTCLSEDSTPDEPDVHFSKKFLNVFMSGRSRSSSAESFGLFSCVINGEEHEQTHRAIFRFVPRHEDELELEVDDPLLVELQAEDYWYEAYNMRTGARGVFPAYYAIEVTKEPEHMAALAKNSDWIDQFRVKFLGSVQVPYHKGNDVLCAAMQKIATTRRLTVHFNPPSSCVLEISVRGVKIGVKADDALEAKGNKCSHFFQLKNISVCGYHPKNNKYFGFITKHPADHRFACHVFVSEDSTKALAESVGRAFQQFYKQFVEYTCPTEDIYLE
